Common to all, as to format: cell-based
The test system of one experiment is AKT. Kind of experiment: Western blotting, phosphorylation of AKT in human iPS cells. As to conditions: feeder conditions, 6 days, versus negative control (bFGF). On the procedure: With respect to the supernatant prepared in the above item (1), the target protein detection was carried out in the same manner as in Example 4. Furthermore, as a negative control, the target protein detection was carried out in the same manner, except that bFGF was added instead of the CCL2.
Then, the ratio of the phosphorylated AKT to the non-phosphorylated AKT (p-AKT/AKT) was determined. Assuming that the value of the p-AKT/AKT in the negative control was “1”, the relative value was calculated. Also, the ratio of the KLF4 gene expression to the GAPDH gene expression (KLF4/GAPDH) was determined. Assuming that KLF4/GAPDH in the negative control was “1”, the relative value was calculated.

Experiment [1] has as its system human iPS cells. Kind of experiment: EB formation and spontaneous differentiation, cell morphology. The settings on record: third day from the plating; iPS cells precultured 6 days with the substance. On the procedure: Human iPS cells were cultured for 6 days under feeder conditions in the same manner as in Example 7. Thereafter, embryonic bodies (EBs) were produced. EB formation is known as a spontaneous differentiation-inducing method for inducing the differentiation of iPS cells. Specifically, first, a ROCK inhibitor (Y-27632, WAKO) was added to the culture solution being used for the culture of the human iPS cells so that the concentration thereof was […], and the human iPS cells were cultured for 1 hour under the conditions of 37° C. and 5% CO2. Then, the feeder cells used for the culture were dissociated with a human ES/iPS cell dissociation solution (CTK solution), and the human iPS cells were collected. Then, 1×10^6 of the human iPS cells were seeded in an ultra-low adhesion culture vessel, and cultured for 6 days in an EB preparation medium (DMEM/F12, Knockout SR, L-glutamine, NEAA (non-essential amino acid (GIBCO)), 2-ME, Pen/Strep). The medium was replaced every two days.
Next, spontaneous differentiation was induced. Specifically, the produced EBs were seeded in gelatin coated dishes so that each gelatin coated dish contained one EB. Each EB was cultured for 14 days in a medium (DMEM) containing 20% FBS, and then observed with a microscope. The medium was replaced every two days. The photographs in FIG. 18 show the cell morphology on the third day from the plating.

In the next experiment the test system is STAT3. In words: Western blotting, phosphorylation of STAT3 in mouse iPS cells. As to conditions: CCL2 overexpressed, 24 hours, relative to negative control. On the procedure: The mouse iPS cells transfected with the Ccl2 expression vector were cultured for 24 hours in the same manner as in Example 1. After the culture, the mouse iPS cells were washed with PBS, and then were suspended in 100 μl of a mammalian m-PER lysis buffer. The suspension was passed through a 26-gauge needle for 10 minutes to homogenize the cells. Then, the suspension was centrifuged at 13,000 rpm and 4° C. for 5 minutes, and the supernatant was collected. The protein concentration in the supernatant was measured using a Pierce (registered trademark) BCA Protein assay (trade name, Thermo Scientific). Next, the supernatant was subjected to Western blotting to detect a target protein. […] Then, luminescence on the membrane was detected using a Fuji LAS-3000 luminescent image analyzer.
As the primary antibody, an anti-phosphorylated STAT3 antibody (anti-pSTAT3 antibody, commercially available from CST, #9145) was used for the phosphorylated STAT3 (pSTAT3), an anti-STAT3 antibody (CST, #9132) was used for the STAT3 protein, and an anti-GAPDH antibody (Santa Cruz Biotechnology Inc, #25778) was used for GAPDH, which is an expression control. […] Then, the ratio of the phosphorylated STAT3 to the non-phosphorylated STAT3 (pSTAT3/STAT3) was determined. […]

Experiment [2] relates to human iPS cells. Kind of experiment: differentiation of EBs to myocardial cells, morphology and Tropomyosin immunostaining. As to conditions: 10th day from the plating; CCL2(+)/LIF(+) or CCL2(-)/bFGF(+) 5 ng/ml. An excerpt: It has been reported that, in general, according to the spontaneous differentiation-inducing method used in the above item (1), differentiation into myocardial cells is more liable to occur. Thus, regarding the cells on the 10th day from the plating in the above item (1), differentiation into myocardial cells was examined.
The morphology of the cells was examined with a microscope. Furthermore, they were immunostained with a Tropomyosin, which is a marker for myocardial cells. Also, culture of the cells, observation of the morphology, and staining were carried out in the same manner as in the above using a medium to which bFGF (5 ng/ml) has been added instead of the CCL2 and LIF.
The photographs in FIG. 19 show the morphologies of the cells on the 10th day from the plating of EB. […] Furthermore, in FIGS. 19A and 19B, the photographs on the left show the cell morphologies, and the photographs on the right show the stained cells. In the black and white photographs of FIG. 19, the stained portions are seen as light gray.

Experiment [3] concerns human iPS cells. In words: qRT-PCR of undifferentiated marker genes, feeder free versus feeder culture of human iPS cells. As to conditions: feeder free with CCL2 and LIF, no bFGF, relative to feeder conditions with bFGF. The method, then:
Specifically, human iPS cells were cultured under feeder conditions where bFGF was added and the CCL2 was not added, and under feeder free conditions where bFGF was not added and the CCL2 and LIF were added. Total RNAs then were extracted, and the expressions of undifferentiated marker genes were examined by the qRT-PCR. The culture under the feeder conditions was carried out in the same manner as in Example 8. The culture under the feeder free conditions was carried out in the same manner as in Example 12. Then, assuming that the expression level under the feeder condition was 1, the relative value with respect to this value was calculated as the fold change in expression level under the feeder free conditions.
FIG. 21 is a graph showing the fold changes in the expression of the undifferentiated marker genes in the human iPS cells. The vertical axis indicates the fold change (-fold), and the horizontal axis indicates the examined undifferentiated marker genes. The open bars show the results obtained under the feeder free conditions, and the solid bars show the results obtained under the feeder conditions.
(Quantitative PCR measures a nucleic acid by following its amplification.)

B1: CCL2: mouse recombinant CCL2 (MCP-1, #479-JE-010, R&D Systems); in Examples 1, 3, 4(1), 5 mouse CCL2 (SEQ ID NO: 3) overexpressed from Ccl2 expression vector (protein, listed as Mus musculus)
chain: MQVPVMLLGLLFTVAGWSIHVLAQPDAVNAPLTCCYSFTSKMIPMSRLESYKRITSSRCPKEAVVFVTKLKREVCADPKKEWVQTYIKNLDRNQMRSEPTTLFKTASALRSSAPLNVKLTRKSEANASTTFSTTTSSTSVGVTSVTVN
B1: in the experiment on AKT, the “phosphorylation of AKT (pAKT/AKT)” value is given as “not promoted”. Besides, the “morphology of EB after spontaneous differentiation-inducing culture” value with human iPS cells [1] is “ES cell-like morphology”. Further, in the experiment with STAT3, the “ratio of phosphorylated STAT3 to non-phosphorylated STAT3 (pSTAT3/STAT3)” value is recorded as “increased”. In the experiment with human iPS cells [2], the “cell morphology of EBs, differentiation into myocardial cells” value was “most of them exhibited myocardial cell-like morphology” and the “staining with Tropomyosin (marker for myocardial cells)” value is recorded as “entirely stained red”. In addition, the “expressions of the undifferentiated marker genes, fold change” value with human iPS cells [3] was “comparable”.

The record behind these values is patent US20140017790A1, “CONTROL AGENT FOR CONTROLLING UNDIFFERENTIATED STATE AND USE THEREOF” (RIKEN, priority 2011, published 2014).
